Data on 2 proteins can be found in patent US20240131059A1 (FUNDACI INSTITUT D INVESTIGACI BIOM DICA DE BELLVITGE …, published 2024).

Data set [1] deals with the molecule itself. Nature of the data set: SDS-PAGE under non-reducing conditions, Coomassie Blue staining and Western blot (self-association). The text has this:
(§1) For Western blot analysis, PRP-based proteins were resolved on 4-12% gradient SDS-PAGE (NuPAGE Bis-Tris 4-12% Mini Gels, Invitrogen) under reducing and non-reducing conditions and transferred to PVDF membrane. After blocking, the membrane was probed with primary antibodies: 1:2000 dil. polyclonal PK9008 rabbit anti-C4BP (a gift from Anna Blom), and 1:4000 dil. 6×His Monoclonal Antibody (Clontech, Mountain View, CA, USA), followed by the addition of 1:2000 dil. polyclonal Goat Anti-Rabbit IgG HRP (P0448, Dako, Agilent, Santa Clara. CA, USA), and 1:2000 dil. polyclonal Goat Anti-Mouse IgG HRP (P0447, Dako, Agilent, Santa Clara, CA, USA), respectively. Detection was performed with enhanced chemiluminescence (ECL) (Pierce, ThermoFischer, Carlsbad, CA, USA) using ChemiDoc Imager (Bio-Rad, Hercules, CA, USA).
(§2) In this regard, and to assess whether the C4BP CCP6 domain alone as a monomer or, conversely, in an heptavalent oligomerized form analogous to its physiological origin, would preserve the anti-inflammatory and immunomodulatory activities ascribed to PRP-HO7 (Olivar et al. (2013) J. Immunol. 190: 2857-2872). PRP6-HO7 and PRP6-NO were produced in HEK293 cells and were purified from its supernatants (FIG. 3). […]
For orientation: A western blot detects proteins with antibodies after separation by electrophoresis.

Data set [2] deals with the molecule itself. Nature of the data set: SDS-PAGE under reducing and non-reducing conditions, Coomassie Blue staining and Western blot (self-association into the heptamer).
Text: as §1, §2

B1: PRP6-NO, recombinant polypeptide formed by the CCP6 domain of C4BP(β-) fused at its C-terminus to a mutated C4BP(β-) oligomerization domain unable to … (other)
chain: HHHHHHLCCPEPKLNNGEITQHRKSRPANHCVYFYGDEISFSCHETSRFSAICQGDGTWSPRTPSCGDETPEGAEQVLTGKRLMQALPNPEDVKMALEVYKLSLEIEQLELQ
notes: Produced in Expi293 cells; Monomer of 12.7 kDa
Consider B1, for which the binding result in data set [1] is given as “no binding”.

B2: mature recombinant polypeptide forming PRP6-HO7 (single monomer chain, 14.3 kDa) (other)
chain: HHHHHHLCCPEPKLNNGEITQHRKSRPANHCVYFYGDEISFSCHETSRFSAICQGDGTWSPRTPSCGDETPEGCEQVLTGKRLMQCLPNPEDVKMALEVYKLSLEIEQLELQRDSARQSTLDKEL
notes: Same chain as in m1; also called PRP6-HO7 monomer chain
In the case of B2, the binding result in data set [2] is given as “binds”.
